Experimental data from patent publication US20130045195.

Experiments:
[1] = biological target: T1, celiac disease relevant peptide LGQQQPFPPQQPYPQPQPF
T1 chain: LGQQQPFPPQQPYPQPQPF

[2] = biological target: T2, celiac disease relevant peptide PQQPQQSFPQQQPPF
T2 chain: PQQPQQSFPQQQPPF

[3] = biological target: T3, celiac disease relevant peptide QLPQQPQQF
T3 chain: QLPQQPQQF

Measured: degradation of peptide analyzed by reverse phase liquid chromatography (50 µg/mL peptide, 25 µg/mL enzyme, 37 °C, pH 4.5, 1 hr)

B1: XP-972061 (proline specific protease, LOC660762, similar to prolylcarboxypeptidase / thymus-specific serine protease) (protein)
chain: RIFRNGRMVGGNLGEPKCNCKESSIKEVQEEWFTQNLDHFNPTDETTWKQRFYSNDQFFDPKNGGPVFLMIGGEGEASIKWMTQGAWVNYAEKFGALMFQLEHRYYGKSHPTDDLSTQNLKYLTSQQALADLATFITAMNEKYSLPPDVKWIAFGGSYPGSLAAWLRFKYPHLVHGAMSASGPLLAQVDFKDYFRVIKESLATHSDDCVTAVQQGVDQIGVLLKQEIGQANLNELFKLCDPVQNSINNEKDISNLYETIADDFAGVVQYNKDNRVGSPAGANITIDVVCDIMVNQTIGPPVNRLAKVNEVLLSAYDQKCLDYNYDKMINNLRNVSWDSEASEGGRQWTYQTCTEFGFYQTSDYEPQIFGDQFSVDFFIQQCTDIFGSIYDEDFLNSATERTNTYYGGLDIEVSNVVFVHGSIDPWHALGITKTIDEEAPAIYIEGTAHCANMYPPADTDLPQLKEAREQILNLIGTWLAQ
completely proteolyzed: all assays above
